Measurements taken from the DeepSol protein solubility set.

Experiment: soluble on expression in E. coli; label from the status in PepcDB or PDB records

Sequence | soluble on expression in E. coli
MCSTEKLSEADANLPYFHGALMNIDADQLLVNEGDFMVTMKKQLDINKLQLFLAVRLKKGIRRYEIKRTSKTAKIGGKTSQNIVKLINMLKADPIEIRGEKVVLKRAIPKGKFQLMHKDVIFQKKIGAGAYGTVYRGKLVKTDEVIAVKKLDPEGADEDGLAEMMKEARVMQLYDHPNIVKFHGFILDDLPYLLVLEYCNGGAVEDRLRDKGEKIKVPTRVKYTYMAACGMDYLHKKNCIHRDIASRNCLIHKGVVKMADFGMCRAQSVYKVDLKKPCNIRWLAPEVWDNGETRFNTDVYAFGIMMWEFFETPFKSPYVEMKAAQVKRKTRAGYRLPPPPSMPSRMVEIMSECWQVDAEKRPTAEELKEKLEEFKKKTENSITTSAPPTSVEKSKLSVSSEPTTKSVDPNKSRL | not soluble
MDAAVIVPAYNEAESLARCLAPFESQPVELVVVVGGDDGTEQVARDTPFVDTVVRCDEGGAGIARNRGAAAATAPILLFTDADTVVPEDWVRLHLRHYADDEVIGVGGPARPLEDSLKHRVLFKLLSDYWYRVSWPLGFVQQPGFNCSFRADAFKAAGGFNEDIPFMEDTELSLRMKDYGRIVYDADSCVATSARREADEGYVSLFAKYVRGYANHYILRREFDADYFLEHHHHHH | not soluble
MDAFKRNLEKLAELAIRVGLNLEKGQEVIATAPIEAVDFVRLLAEKAYREGASLFTVIYGDQELARKRLALAPEEGLDKAPAWLYEGMARAFREGAARLAVSGSDPKALEGLPPEKVGRAQKANARAYKPALEAITEFVTNWTIVPFAHPGWARAVFPGLPEEEAVRRLWEAIFQATRADQEDPIAAWEAHNRALHEKVAYLNARRFHALHFKGPGTDLVVGLAEGHLWQGGATATKGGRLCNPNLPTEEVFTAPHRERVEGVVRASRPLALGGTLVEGIFARFERGFAVEVRAEKGEEVLRRLLDTDEGARRLGEVALVPADNPIAKTGLVFFDTLFDENAASHIAFGQAYQENLEGRPSGEAFRKRGGNESLVHVDWMIGSEEMDVDGLYEDGTRTPLMRRGRWVV | soluble
MDAKQRIARRVAQELRDGDIVNLGIGLPTMVANYLPEGIHITLQSENGFLGLGPVTTAHPDLVNAGGQPCGVLPGAAMFDSAMSFALIRGGHIDACVLGGLQVDEEANLANWVVPGKMVPGMGGAMDLVTGSRKVIIAMEHCAKDGSAKILRRCTMPLTAQHAVHMLVTELAVFRFIDGKMWLTEIADGCDLATVRAKTEARFEVAADLNTQRGDL | soluble
MDAQSYMPVPPGVGMEENFFSLDDILLSHERLPCRTESAFPRLGFLEKSSDSRDIPEGTKMEMPLWLAKGLYERKRRVLSVELPKVYREGWRTVFGADPTVVDLYKMGPYYYGLGSQMLHFESPENPEIANTILQTFIGRFRRTMDSSQNAYNEDTSALVERLDYLERSLFKAGQSGLNNFQLWEKGRSSHLTASSLVINYRKRKMTDLQA | not soluble
MDATISVVCYKSKTLSNGEHPLMLRISKDGKKKYQSLGISVNPKFWDFQKNKPKPKCPNLEYLQKIILDKKLELQKKMLEIKSDQKEYSAATLIEANEKLQVAKNVDCFYKEIIAQCEINNKCGNRLVYLNSYNSLKRFTNGKLEIPFNTINVAWLEKYEKWLRSNGNKETTISLMFRTLRSTYNKAIKERCAHLSDYPFQEYKISKFDTSTQKRAIAKTDMLKFTETSQPIGQKKYVELSKDIFIFSYLCGGINFTDIANLTQENIVNGRLHYIRQKTGKLIKIGIPQEAMQIIKKYTDESNG | not soluble
MDDKEKNAEVAKAIKLPDLASYMQVVIKQLEIDKKWSAVHTYTYTLKSVTEFYGGKGTPVPIDEAFTSGRLKEYEEWMRLEGTRNKKTDKKRSDRKHGVPKGLSLNTISTYMRTLKAVYNRLADKKILPYNPKLFDNVYTKVESQTKRALDTKQMNTLLHTDIEKLPKEMQCALAYFLLMFLFRGMPFIDLAHLRKQDVKGKYIVYSRHKTGRQITVRIPKEAMKLIEKFKNMNYDSIYLFPILDKKNAAKEQSQKNGKIKKDKELYMNYLRVLRNFNLKLEKIATLLLPDVKLSSYTPRHTWATLAFHAGVNIGIICKALGHSSIKVTETYLKPFENEKVDIANDELIISVVAHNGEKEVA | not soluble
MDDQGGTRPDLLSLKPTAVPRLPLVLLARSRLVAKLDDTADTVLICAPAGYGKTLLLSQWLEDQAHKVAWLSPNQHNREALWPAMLQALRRSPAIPPGALRQFSGDEEDAVEVLGDLAQELASTGTSVRLVIDGVDGFSSDERERWIPALLNQSGPPIQLALVARDSTAVDAGPARLSGRIVELRSSDLAFSLEEINVLAAKTTTL | not soluble
MDDRTEYDVYTDGSYVNGQYAWAYAFVKDGKVHYEDADVGKNPAAATMRNVAGEIAAALYAVKKASQLGVKIRILHDYAGIAFWATGEWKAKNEFTQAYAKLMNQYRGIYSFEKVKAHSGNEFNDYVDMKAKSALGIRDLEHHHHHH | soluble
MDELFEEHLEIAKALFAQRLPYWCDVFLRPADQAFNAYLNARGQASTYLVLEGFDPVYVPRGCDLDAVRATARARARLREAGLGEDALPVLL | not soluble
MDEPVDVELVLAVDVSLSMSADELEIQRHGYAAALTHDNVLQAIADGAHGKIAVTYVEWAGTTWQRVIVPWTVIANRADAERVVAQLSAQPPNSARRTSISGALEFGSDLFAESGYEGTKRVIDISGDGPNNQGAPVNLTRDGVVRQGIVINGLPLMTRGGLSGAYDVNDLDRYYSDCVIGGPGAFMIPVNDWTQFPEAIRRKLVLELAGLEHHHHHH | soluble
MDESEPVRQIYDHKDLAEFLESSAFQDIWDFVERLNCSVRGLSGDALAGPRVPATSLVTAELAALKELAAEVELLPAETGRFGNRAFRTWFSQLQERTPRFTEELLVKSDQTKRYGPDLQAYFLGAFGDPMRIDYGTGHEASFLLFMFCLHRLHLFRAEDFPELVLSVFPAYLATTRYLQQRFTLEPAGSHGVWGLDDYVFLPFLFGSSQLIGKDTEVPPVAARDRELVLELAPKYLYFDTIRFILETKRGPFAEHSPTLYDISGLENWSRINAGLLRMYKAEVWSKLPVIQHIPFGILIPFRSAARTSTERLPAGS | not soluble
MDEVGVASEHLPDLRDRTGHAVNLAVWGDHGPVLVRWDYGAHALPITIRVGATMPLLTSAIGRVYLAHLPATMTTSIVETELETLGTNAPSKSDVARLRATVLEQGVATISGEVIPGVMSVAAPVFPAGQSIPLAVAVALPSSLGDTATVAEVTLELLRTTKAISEDYGSVGGAAGGPIA | not soluble
MDEYRELISVLPLETVEYAFAYGSGAIQQQNEDKSEKMVDFVIVTKNAQEFHRDNILKNPQHYSLLRLMGPKMIEKIQCNFAARVYYNTHVKVGKRKIKYGVISYENVKQDLLDWRWIYISGRLHKPVLEVIKPRQDMCDLVTENRRSALHSSLLLLPESFTLKQLFHKIVGLSYTGDFRMVVGEDKNKINKIVEGNYEELLRVYEPLMNDDARLSVMSPAKLIQDGSTTAIYHRLNLLPSEVLNRIQKNMNRVQKRQRDAEEVIFSLAHRHDVAATVETAIGGIIRPVSLSQTAKNAFSAGVTRSIIYSMAKMSKFLKSK | not soluble
MDFAVMKQVKNTGLLQSEELCQYILRTSVYPREAGFLKELREANESHPDSYMSTSPLAGQLMSFVLKLVNAKKTIEVGVFTGYSLLLTALSIPDDGKITAIDFDREAYEIGLPFIRKAGVEHKINFIESDAMLALDNLLQGQESEGSYDFGFVDADKPNYIKYHERLMKLVKVGGIVAYDNTLWGGTVAQPESEVPDFMKENREAVIELNKLLAADPRIEIVHLPLGDGITFCRRLY | soluble
MDFPCLWLGLLLPLVAALDFNYHRQEGMEAFLKTVAQNYSSVTHLHSIGKSVKGRNLWVLVVGRFPKEHRIGIPEFKYVANMHGDETVGRELLLHLIDYLVTSDGKDPEITNLINSTRIHIMPSMNPDGFEAVKKPDCYYSIGRENYNQYDLNRNFPDAFEYNNVSRQPETVAVMKWLKTETFVLSANLHGGALVASYPFDNGVQATGALYSRSLTPDDDVFQYLAHTYASRNPNMKKGDECKNKMNFPNGVTNGYSWYPLQGGMQDYNYIWAQCFEITLELSCCKYPREEKLPSFWNNNKASLIEYIKQVHLGVKGQVFDQNGNPLPNVIVEVQDRKHICPYRTNKYGEYYLLLLPGSYIINVTVPGHDPHITKVIIPEKSQNFSALKKDILLPFQGQLDSIPVSNPSCPMIPLYRNLPDHSAATKPSLFLFLVSLLHIFFK | soluble
MDFPPTKLDYHVDMFNLQSHSRFLSLFKAQDGRIALILESTVFHPQGGGQPSDTGLIVFSGSDLKFSVQDVLHYGVFEGSNPESGIDSEKGKEVYLTVDESRRKLNSRQAVEDCSHCYAWHGWNKISDVWLHSAGHLLDMCMQKVGLGHLEPGKGYHFPDGPFVEYKGSVPQEEFQVKQKELEAEANELISKGGKVYAAILPYEEASVLCGGSLPDYISKGSTPRIIKLGDSPGCPCGGTHVSNLSDIISMKITQMRTKKGMTKVFYTIAS | soluble
MDFQHWLHEAVNQLRDSDSPRRDAEILLEYVTGKGRTYIMAFGETPLTDVQQQQLADLLQRRKQGEPIAYLTGLREFWSLPLFVSPATLIPRPDTECLVEQALARLPVKTCRILDLGTGTGAIALALACERPDCEVTAVDRMPDAVALAIRNAEHLAIRNVRILQSCWFSALSGQQFDMIVSNPPYIDAQDPHLSEGDVRFEPRSALVADENGMADLTHIIDNARQMLTPGGFLLLEHGWQQGEAVRAVFRRSGYSDVETCRDYGGNERVTCGRFTP | not soluble
MDGELKNLKCNISQLAAITGLHRQTVVSRLSGVPLAPGSNEKNKLYLLTDVIRVLMEAPVSQAAEHQDPNKMTPKERKDWFDSEKGRLWLEKEMKQVVPLPEVRQQMAAIVKAITQVLEVWPDKLERDKGWSADQLNEAQDVVDEVRILLVKAIQETADDDGE | not soluble
MDGRRLVVRHGADTSVDTVWNILTDTDCWADWGPSVTAVETATRYIDDGTTGRVCVAGAVWLPFEVTACTPYRWTWTVARLPATGHFVEERAGGSVVGFEIPPLATGYAPVCARACQRIATLAQQRDALEHHHHHH | soluble
MDHIVLTHVFNGGSAESAALCPQDKIIALDGYACTDFAAQWARYHVRAKINIHFFRAGILRQTVLTVQATALEHHHHHH | not soluble
MDHVHKSTTTDEDERNSGRAIDRHNPIIKDGRRSFADDFIKLPTSAEDGEMSNKKLEIYKGRRSITGRRSTGGGGGGGAAALLKLITNDIGLARKSFSCVARPACDLIKTPVGSTRYLLGSDPDSITGSVDQDPAKTVEAEAPAGEDKTLTEKKTTCGDTDQVSCFVVSIMSGINVNKW | not soluble
MDIAVQLVDSGGGTLQAGKSLRLSCAISGLAFDGGAMGSEHRLTAGAMGWFRQAPGKDREFVAAISPRTDETYYAESLEGRFSVSRDAAATMVFLQADNVRLDDTASYYCAADEDVTPRVMGVIPHADHWGQGTLVTVSSAAALEHHHHHH | soluble
MDIPQTKQDLELPKLAGTWHSMAMATNNISLMATLKAPLRVHITSLLPTPEDNLEIVLHRWENNSCVEKKVLGEKTENPKKFKINYTVANEATLLDTDYDNFLFLCLQDTTTPIQSMMCQYLARVLVEDDEIMQGFIRAFRPLPRHLWYLLDLKQMEEPCRF | soluble
MDIQIKRAYEPADPADGCRILVDRLWPRGLTKQQVACDLWLKEIAPTADLRKWFNHDPAKWAEFQRRYRDELSVNPCVKELLDRAAKGRLTLLYGARDAECNQAVVLRDYLLERN | not soluble
